Reference: patent publication US20180105585A1 (published 2018)

What was measured:
[1] = biological target: T1, Biotinylated human Amyloid beta 1-42 peptide (human, N-terminal biotin); assay: SPR (ProteOn), biotinylated peptide on streptavidin chip, scFv as analyte
T1 construct: Synthetic peptide (rPeptide A1117 or Bachem H-5642); range counted on Amyloid beta; also called N-terminal biotin Abeta 1-42; synthetic biotinylated human Amyloid beta 1-42 peptide

[2] = biological target: T1, Biotinylated human Amyloid beta 1-42 …; assay: HTRF epitope competition, purified scFv against Abet0144-GL IgG1-TM (competitor) for biotinylated human Amyloid beta 1-42
[3] = biological target: T2, Amyloid beta plaques in Tg2576 mouse brain sections (human (transgene in mouse), UniProt P05067 672-713, limits assumed); assay: in vitro immunohistochemistry, core plaques
T2 construct: domain: Amyloid beta; The two APP mutations lie before the first residue of Amyloid beta; also called native Amyloid beta; Tg2576 brain sections
T2 sequence (P05067 672-713 limits assumed): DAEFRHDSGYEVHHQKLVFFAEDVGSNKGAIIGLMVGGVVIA

[4] = biological target: T3, Amyloid beta plaques in human Alzheimer's Disease brain sections (human, UniProt P05067 672-713, limits assumed); assay: in vitro immunohistochemistry, core plaques
T3 construct: domain: Amyloid beta; Paraffin sections treated with formic acid; aggregated native peptide of mixed length; also called native Amyloid beta; human AD brain sections
T3 sequence (P05067 672-713 limits assumed): as above

T1 sequence (peptide, as listed by the source): as the sequence (P05067 672-713 limits assumed) above

Kd [1] [nM]	koff [1] [s⁻¹]	kon [1] [M⁻¹ s⁻¹]	IC50 [2] [nM]	plaque staining score [3]	plaque staining score [4]	Binder
0.729	0.000103	141000	0.55	–	–	Abet0328 scFv (scFv, V domains shown) VH: EVQLLESGGGLVQPGGSLRLSCAASSDAFKTDTMWWVRQAPRKGLEWVSVIGAHTNNSAYADSVKGRFTISRDNSKNTLYLQMNSLRAEDTAVYYCAREWMDRSRPYYYYGMDVWGQGTLVTVSS VL: SYELTQPPSVSVSPGQTVSITCSGRNLEDKFASWYQQKPGQSPVLVIYRDDKRPSGVPERFSASNSGHTATLTISGTQATDEADYYCSSQDTVTRVFGGGTKLTVL
–	–	–	–	4 score (0-4)	3 score (0-4)	Abet0380-GL IgG1-TM (antibody, V domains shown, Whole human IgG1 with the triple mutation L234F/L235E/P331S (TM) and human lambda light chain constant domain; also called Abet0380-GL (germlined) IgG1-TM) VH: EVQLLESGGGLVQPGGSLRLSCAASMGNFNYQTMWWVRQAPGKGLEWVSVIGKTNENIAYADSVKGRFTISRDNSKNTLYLQMNSLRAEDTAVYYCAREWMDHSRPYYYYGMDVWGQGTLVTVSS VL: SYELTQPPSVSVSPGQTASITCSGHNLEDKFASWYQQKPGQSPVLVIYRDDKRPSGIPERFSASNSGHTATLTISGTQAMDEADYYCSSQDTVTRVFGGGTKLTVL
–	–	–	–	1 score (0-4)	1.5 score (0-4)	Abet0144-GL IgG1-TM (antibody, V domains shown, Whole human IgG1 with the triple mutation L234F/L235E/P331S (TM) and human lambda light chain constant domain; also called Abet0144-GL (germlined) IgG1-TM) VH: EVQLLESGGGLVQPGGSLRLSCAASGFTFSVYTMWWVRQAPGKGLEWVSVIGSSGGTTVYADSVKGRFTISRDNSKNTLYLQMNSLRAEDTAVYYCAREWMDHSRPYYYYGMDVWGQGTLVTVSS VL: SYELTQPPSVSVSPGQTASITCSGHNLEDKFASWYQQKPGQSPVLVIYRDDKRPSGIPERFSASNSGHTATLTISGTQAMDEADYYCQAQDSTTRVFGGGTKLTVL
